We go through three molecules from patent publication US20140274782A1, “AFFINITY REAGENTS AND METHODS FOR DETECTION, PURIFICATION, AND PROTEOMIC ANALYSIS OF METHYLATED PROTEINS” (The Board of Trustees of the Leland Stanford Junior …, priority 2013, published 2014).

T1: G9a and GLP (Homo sapiens, UniProt Q96KQ7+Q9H9B1)
T1 sequence (Q96KQ7 2-1210 limits assumed): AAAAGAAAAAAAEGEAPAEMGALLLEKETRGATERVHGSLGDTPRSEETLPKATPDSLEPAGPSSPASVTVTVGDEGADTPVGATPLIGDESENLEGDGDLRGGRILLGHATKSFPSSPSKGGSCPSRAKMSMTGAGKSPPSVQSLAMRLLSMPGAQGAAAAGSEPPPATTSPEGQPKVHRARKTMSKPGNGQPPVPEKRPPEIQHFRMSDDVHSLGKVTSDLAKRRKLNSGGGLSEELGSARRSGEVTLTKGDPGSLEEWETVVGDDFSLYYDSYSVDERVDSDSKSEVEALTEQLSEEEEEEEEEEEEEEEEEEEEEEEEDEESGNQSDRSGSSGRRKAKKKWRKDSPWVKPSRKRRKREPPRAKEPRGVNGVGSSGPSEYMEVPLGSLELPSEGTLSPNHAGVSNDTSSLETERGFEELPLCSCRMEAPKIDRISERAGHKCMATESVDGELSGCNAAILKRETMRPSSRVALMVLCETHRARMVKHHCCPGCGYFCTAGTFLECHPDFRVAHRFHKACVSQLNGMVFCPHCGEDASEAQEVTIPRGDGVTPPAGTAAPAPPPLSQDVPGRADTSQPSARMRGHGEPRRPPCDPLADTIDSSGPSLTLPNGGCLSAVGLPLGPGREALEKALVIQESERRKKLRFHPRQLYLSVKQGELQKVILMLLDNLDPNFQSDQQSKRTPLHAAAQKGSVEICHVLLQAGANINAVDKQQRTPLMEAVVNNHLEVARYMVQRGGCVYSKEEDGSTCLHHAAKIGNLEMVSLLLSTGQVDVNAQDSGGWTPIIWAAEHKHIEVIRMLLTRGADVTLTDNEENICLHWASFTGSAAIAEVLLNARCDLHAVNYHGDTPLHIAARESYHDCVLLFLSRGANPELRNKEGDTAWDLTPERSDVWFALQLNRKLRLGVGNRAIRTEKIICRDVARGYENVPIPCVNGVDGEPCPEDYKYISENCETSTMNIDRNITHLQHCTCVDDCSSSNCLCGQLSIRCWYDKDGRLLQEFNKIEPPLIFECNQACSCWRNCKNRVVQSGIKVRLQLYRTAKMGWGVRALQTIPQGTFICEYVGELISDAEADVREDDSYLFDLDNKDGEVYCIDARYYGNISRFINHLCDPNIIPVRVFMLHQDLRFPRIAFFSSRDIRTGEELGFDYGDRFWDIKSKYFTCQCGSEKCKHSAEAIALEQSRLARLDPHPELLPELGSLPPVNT
T1 sequence (Q9H9B1 2-1298 limits assumed): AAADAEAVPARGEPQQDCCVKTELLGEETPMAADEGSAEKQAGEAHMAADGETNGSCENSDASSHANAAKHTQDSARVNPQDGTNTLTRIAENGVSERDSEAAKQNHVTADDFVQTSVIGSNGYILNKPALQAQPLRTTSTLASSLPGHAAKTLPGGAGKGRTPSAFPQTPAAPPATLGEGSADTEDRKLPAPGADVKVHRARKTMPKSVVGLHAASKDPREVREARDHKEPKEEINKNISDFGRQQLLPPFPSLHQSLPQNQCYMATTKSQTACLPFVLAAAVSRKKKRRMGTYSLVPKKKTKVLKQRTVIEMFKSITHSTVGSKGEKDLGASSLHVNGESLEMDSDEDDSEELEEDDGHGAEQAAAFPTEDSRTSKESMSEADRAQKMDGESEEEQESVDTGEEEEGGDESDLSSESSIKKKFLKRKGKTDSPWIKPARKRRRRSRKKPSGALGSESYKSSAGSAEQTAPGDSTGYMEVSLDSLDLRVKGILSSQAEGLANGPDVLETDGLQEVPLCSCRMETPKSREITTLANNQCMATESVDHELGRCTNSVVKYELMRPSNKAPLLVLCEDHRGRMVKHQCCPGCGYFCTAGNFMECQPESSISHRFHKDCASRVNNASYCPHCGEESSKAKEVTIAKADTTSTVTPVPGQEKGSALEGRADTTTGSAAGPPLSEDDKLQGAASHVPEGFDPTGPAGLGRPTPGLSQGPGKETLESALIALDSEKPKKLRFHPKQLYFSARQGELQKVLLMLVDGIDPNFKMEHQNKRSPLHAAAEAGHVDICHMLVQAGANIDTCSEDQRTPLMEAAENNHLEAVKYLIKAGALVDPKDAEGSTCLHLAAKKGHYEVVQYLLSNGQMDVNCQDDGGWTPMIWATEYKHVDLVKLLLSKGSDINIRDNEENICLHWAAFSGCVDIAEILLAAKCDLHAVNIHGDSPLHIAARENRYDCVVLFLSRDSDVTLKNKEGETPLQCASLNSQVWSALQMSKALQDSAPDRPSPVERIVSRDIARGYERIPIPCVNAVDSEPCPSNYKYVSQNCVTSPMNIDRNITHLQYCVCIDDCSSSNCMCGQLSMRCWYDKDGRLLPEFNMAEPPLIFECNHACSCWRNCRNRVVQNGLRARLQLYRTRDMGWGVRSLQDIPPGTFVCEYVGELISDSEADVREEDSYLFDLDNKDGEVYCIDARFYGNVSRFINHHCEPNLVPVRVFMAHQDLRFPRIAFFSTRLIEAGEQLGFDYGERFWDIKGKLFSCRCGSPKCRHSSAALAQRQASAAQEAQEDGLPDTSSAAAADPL

B1: SYNCRIP (protein, UniProt O60506 2-623, looked up)
Heterogeneous nuclear …: ATEHVNGNGTEEPMDTTSAVIHSENFQTLLDAGLPQKVAEKLDEIYVAGLVAHSDLDERAIEALKEFNEDGALAVLQQFKDSDLSHVQNKSAFLCGVMKTYRQREKQGTKVADSSKGPDEAKIKALLERTGYTLDVTTGQRKYGGPPPDSVYSGQQPSVGTEIFVGKIPRDLFEDELVPLFEKAGPIWDLRLMMDPLTGLNRGYAFVTFCTKEAAQEAVKLYNNHEIRSGKHIGVCISVANNRLFVGSIPKSKTKEQILEEFSKVTEGLTDVILYHQPDDKKKNRGFCFLEYEDHKTAAQARRRLMSGKVKVWGNVGTVEWADPIEDPDPEVMAKVKVLFVRNLANTVTEEILEKAFSQFGKLERVKKLKDYAFIHFDERDGAVKAMEEMNGKDLEGENIEIVFAKPPDQKRKERKAQRQAAKNQMYDDYYYYGPPHMPPPTRGRGRGGRGGYGYPPDYYGYEDYYDYYGYDYHNYRGGYEDPYYGYEDFQVGARGRGGRGARGAAPSRGRGAAPPRGRAGYSQRGGPGSARGVRGARGGAQQQRGRGVRGARGGRGGNVGGKRKADGYNQPDSKRRQTNNQNWGSQPIAQQPLQGGDHSGNYGYKSENQEFYQDTFGQQWK
B2: CPSF1 (protein, UniProt Q10570 1-1443, looked up)
Cleavage and polyadenylation …: MYAVYKQAHPPTGLEFSMYCNFFNNSERNLVVAGTSQLYVYRLNRDAEALTKNDRSTEGKAHREKLELAASFSFFGNVMSMASVQLAGAKRDALLLSFKDAKLSVVEYDPGTHDLKTLSLHYFEEPELRDGFVQNVHTPRVRVDPDGRCAAMLVYGTRLVVLPFRRESLAEEHEGLVGEGQRSSFLPSYIIDVRALDEKLLNIIDLQFLHGYYEPTLLILFEPNQTWPGRVAVRQDTCSIVAISLNITQKVHPVIWSLTSLPFDCTQALAVPKPIGGVVVFAVNSLLYLNQSVPPYGVALNSLTTGTTAFPLRTQEGVRITLDCAQATFISYDKMVISLKGGEIYVLTLITDGMRSVRAFHFDKAAASVLTTSMVTMEPGYLFLGSRLGNSLLLKYTEKLQEPPASAVREAADKEEPPSKKKRVDATAGWSAAGKSVPQDEVDEIEVYGSEAQSGTQLATYSFEVCDSILNIGPCANAAVGEPAFLSEEFQNSPEPDLEIVVCSGHGKNGALSVLQKSIRPQVVTTFELPGCYDMWTVIAPVRKEEEDNPKGEGTEQEPSTTPEADDDGRRHGFLILSREDSTMILQTGQEIMELDTSGFATQGPTVFAGNIGDNRYIVQVSPLGIRLLEGVNQLHFIPVDLGAPIVQCAVADPYVVIMSAEGHVTMFLLKSDSYGGRHHRLALHKPPLHHQSKVITLCLYRDLSGMFTTESRLGGARDELGGRSGPEAEGLGSETSPTVDDEEEMLYGDSGSLFSPSKEEARRSSQPPADRDPAPFRAEPTHWCLLVRENGTMEIYQLPDWRLVFLVKNFPVGQRVLVDSSFGQPTTQGEARREEATRQGELPLVKEVLLVALGSRQSRPYLLVHVDQELLIYEAFPHDSQLGQGNLKVRFKKVPHNINFREKKPKPSKKKAEGGGAEEGAGARGRVARFRYFEDIYGYSGVFICGPSPHWLLVTGRGALRLHPMAIDGPVDSFAPFHNVNCPRGFLYFNRQGELRISVLPAYLSYDAPWPVRKIPLRCTAHYVAYHVESKVYAVATSTNTPCARIPRMTGEEKEFETIERDERYIHPQQEAFSIQLISPVSWEAIPNARIELQEWEHVTCMKTVSLRSEETVSGLKGYVAAGTCLMQGEEVTCRGRILIMDVIEVVPEPGQPLTKNKFKVLYEKEQKGPVTALCHCNGHLVSAIGQKIFLWSLRASELTGMAFIDTQLYIHQMISVKNFILAADVMKSISLLRYQEESKTLSLVSRDAKPLEVYSVDFMVDNAQLGFLVSDRDRNLMVYMYLPEAKESFGGMRLLRRADFHVGAHVNTFWRTPCRGATEGLSKKSVVWENKHITWFATLDGGIGLLLPMQEKTYRRLLMLQNALTTMLPHHAGLNPRAFRMLHVDRRTLQNAVRNVLDGELLNRYLYLSTMERSELAKKIGTTPDIILDDLLETDRVTAHF
B3: KHSRP (protein, UniProt Q92945 2-711, looked up)
Far upstream element-binding …: SDYSTGGPPPGPPPPAGGGGGAGGAGGGPPPGPPGAGDRGGGGPGGGGPGGGSAGGPSQPPGGGGPGIRKDAFADAVQRARQIAAKIGGDAATTVNNSTPDFGFGGQKRQLEDGDQPESKKLASQGDSISSQLGPIHPPPRTSMTEEYRVPDGMVGLIIGRGGEQINKIQQDSGCKVQISPDSGGLPERSVSLTGAPESVQKAKMMLDDIVSRGRGGPPGQFHDNANGGQNGTVQEIMIPAGKAGLVIGKGGETIKQLQERAGVKMILIQDGSQNTNVDKPLRIIGDPYKVQQACEMVMDILRERDQGGFGDRNEYGSRIGGGIDVPVPRHSVGVVIGRSGEMIKKIQNDAGVRIQFKQDDGTGPEKIAHIMGPPDRCEHAARIINDLLQSLRSGPPGPPGGPGMPPGGRGRGRGQGNWGPPGGEMTFSIPTHKCGLVIGRGGENVKAINQQTGAFVEISRQLPPNGDPNFKLFIIRGSPQQIDHAKQLIEEKIEGPLCPVGPGPGGPGPAGPMGPFNPGPFNQGPPGAPPHAGGPPPHQYPPQGWGNTYPQWQPPAPHDPSKAAAAAADPNAAWAAYYSHYYQQPPGPVPGPAPAPAAPPAQGEPPQPPPTGQSDYTKAWEEYYKKIGQQPQQPGAPPQQDYTKAWEEYYKKQAQVATGGGPGAPPGSQPDYSAAWAEYYRQQAAYYGQTPGPGGPQPPPTQQGQQQAQ

For the first assay, the system named is 3×MBT domain of L3MBTL1. Kind of assay: Triple SILAC pull-down, 3xMBT/3xMBTD355N ratio (cytoplasmic, nuclear and chromatin fractions of 293T cells).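 Further: proteins quantified with MaxQuant, requiring at least two unique peptides and quantification in both label directions, normalized to the mean of proteins from a digested loading control.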 Format: binding, human. Conditions: SILAC ratio, pull-down 3xMBT vs 3xMBTD355N; experiment with UNC0638 in heavy SILAC media.
As for B1, the “3xMBT/D355N UNC Heavy” value amounted to 2.28 log base 2.
Still for that read-out and setting: with B2 the figure was 2.44 log base 2; with B3, 3.34 log base 2.

The same assay, now with this note: SILAC ratio, pull-down 3xMBT vs 3xMBTD355N; experiment with UNC0638 in light SILAC media.
In the case of B1, the “3xMBT/D355N UNC Light” value came out at 3.48 log base 2.
As for B2, the “3xMBT/D355N UNC Light” value is 3.15 log base 2.
Still for that read-out and setting: for B3 the value was 3.18 log base 2.

A further assay concerns the target T1, G9a and GLP. Kind of assay: Triple SILAC pull-down after UNC0638 treatment of 293T cells, DMSO/UNC0638 ratio of protein captured by 3×MBT.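 Further: mass spectrometry (Q-Exactive) SILAC quantitation, DMSO/UNC0638 ratio computed after subtracting 3×MBTD355N mutant pull-down background, only proteins with at least twofold 3×MBT over mutant signal considered.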 The settings on record: SILAC ratio DMSO/UNC0638 of protein pulled down with 3xMBT; UNC0638 in heavy SILAC media. The arrangement: endogenous in cells; host or cells: HEK 293T. Format: cell-based.
For B1, the “Relative to UNC0638 UNC Heavy” value worked out at 0.14 log base 2.
Take B2: the “Relative to UNC0638 UNC Heavy” value is 0.17 log base 2.
Consider B3, for which the “Relative to UNC0638 UNC Heavy” value was 0.17 log base 2.

The same assay, now with this note: SILAC ratio DMSO/UNC0638 of protein pulled down with 3xMBT; UNC0638 in light SILAC media.
With B1, the “Relative to UNC0638 UNC Light” value is reported as 0.17 log base 2.
On the same count and under the same terms, with B2 the figure was 0.15 log base 2; with B3, 0.16 log base 2.

The assay is the same for the next values; noted with them: average of UNC Light and UNC Heavy experiments.
Turning to B1, the “Relative to UNC0638 Average” value was 0.15 log base 2.
On the same count and under the same terms, with B2 the figure was 0.16 log base 2; with B3, 0.16 log base 2.
